Values of other authors in patent US20240156960A1 (priority 2020, published 2024).
Read-outs that look alike come from different tables or passages of the source.

Tests used:
SARS-CoV1 [1] = test system: SARS-CoV1
SARS-CoV2 S; RBD = SARS-CoV2 S; RBD (Severe acute respiratory syndrome coronavirus 2, UniProt P0DTC2); conditions: epitope S
[2] = test system: coronavirus named in the cell (SARS-CoV2, SARS-CoV1)
[3] = test system: coronavirus named in the cell (SARS-CoV2, SARS-CoV1), S protein
OC43 S = OC43 S (Human coronavirus OC43, UniProt P36334); conditions: Protein + Epitope S, Unk
NL63 S = NL63 S (Human coronavirus NL63, UniProt Q6Q1S2); conditions: Protein + Epitope S, Unk
SARS-CoV1 S = SARS-CoV1 S (Severe acute respiratory syndrome coronavirus, UniProt P59594)
SARS-CoV2 S = SARS-CoV2 S (Severe acute respiratory syndrome coronavirus 2, UniProt P0DTC2); conditions: Protein + Epitope S, Unk
SARS-CoV1 [4] = test system: SARS-CoV1; remark: listed apart in the source
SARS-CoV1 [5] = test system: SARS-CoV1; remark: listed apart in the source
SARS-CoV2 = conditions: source Davide Robbiani et al., 2020
[6] = test system: SARS-CoV2, SARS-CoV1, NL63, 229E, HKU1, OC43

Sequence of NL63 S (Q6Q1S2 19-1356): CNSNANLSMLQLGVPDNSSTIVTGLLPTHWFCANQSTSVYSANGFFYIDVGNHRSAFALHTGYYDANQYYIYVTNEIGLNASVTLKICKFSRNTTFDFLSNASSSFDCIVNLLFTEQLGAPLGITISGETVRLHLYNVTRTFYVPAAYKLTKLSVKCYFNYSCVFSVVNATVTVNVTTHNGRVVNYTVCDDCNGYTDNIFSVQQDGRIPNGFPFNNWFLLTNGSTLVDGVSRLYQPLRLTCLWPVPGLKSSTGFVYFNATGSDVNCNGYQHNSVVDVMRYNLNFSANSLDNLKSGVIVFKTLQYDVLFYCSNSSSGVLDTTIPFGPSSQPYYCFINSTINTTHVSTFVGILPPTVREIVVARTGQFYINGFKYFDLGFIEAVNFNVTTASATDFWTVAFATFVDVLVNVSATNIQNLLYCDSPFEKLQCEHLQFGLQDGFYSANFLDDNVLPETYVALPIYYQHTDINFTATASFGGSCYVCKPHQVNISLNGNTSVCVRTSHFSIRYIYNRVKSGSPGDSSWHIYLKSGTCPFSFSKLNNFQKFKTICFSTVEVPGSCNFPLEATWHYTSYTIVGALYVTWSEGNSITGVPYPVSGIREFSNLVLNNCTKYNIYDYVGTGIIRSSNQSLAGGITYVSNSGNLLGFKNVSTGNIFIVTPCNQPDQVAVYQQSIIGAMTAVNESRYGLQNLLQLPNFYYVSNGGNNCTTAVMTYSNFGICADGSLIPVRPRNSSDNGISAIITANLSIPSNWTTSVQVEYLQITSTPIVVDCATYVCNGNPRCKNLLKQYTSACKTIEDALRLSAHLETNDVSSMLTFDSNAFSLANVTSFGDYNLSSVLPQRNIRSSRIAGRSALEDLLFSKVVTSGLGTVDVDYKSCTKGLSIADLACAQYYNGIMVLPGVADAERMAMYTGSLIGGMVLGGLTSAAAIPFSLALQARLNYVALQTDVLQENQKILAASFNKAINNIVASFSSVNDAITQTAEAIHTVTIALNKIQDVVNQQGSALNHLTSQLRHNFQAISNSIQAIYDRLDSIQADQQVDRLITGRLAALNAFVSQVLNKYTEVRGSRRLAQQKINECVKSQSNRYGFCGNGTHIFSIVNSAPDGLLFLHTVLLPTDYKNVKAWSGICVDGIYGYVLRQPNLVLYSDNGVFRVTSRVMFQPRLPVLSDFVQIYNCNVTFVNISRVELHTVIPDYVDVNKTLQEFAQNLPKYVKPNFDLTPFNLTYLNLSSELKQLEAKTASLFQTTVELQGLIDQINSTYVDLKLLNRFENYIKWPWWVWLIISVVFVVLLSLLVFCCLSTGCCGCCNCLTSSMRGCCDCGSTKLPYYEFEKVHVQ
Sequence of OC43 S (P36334 14-1353): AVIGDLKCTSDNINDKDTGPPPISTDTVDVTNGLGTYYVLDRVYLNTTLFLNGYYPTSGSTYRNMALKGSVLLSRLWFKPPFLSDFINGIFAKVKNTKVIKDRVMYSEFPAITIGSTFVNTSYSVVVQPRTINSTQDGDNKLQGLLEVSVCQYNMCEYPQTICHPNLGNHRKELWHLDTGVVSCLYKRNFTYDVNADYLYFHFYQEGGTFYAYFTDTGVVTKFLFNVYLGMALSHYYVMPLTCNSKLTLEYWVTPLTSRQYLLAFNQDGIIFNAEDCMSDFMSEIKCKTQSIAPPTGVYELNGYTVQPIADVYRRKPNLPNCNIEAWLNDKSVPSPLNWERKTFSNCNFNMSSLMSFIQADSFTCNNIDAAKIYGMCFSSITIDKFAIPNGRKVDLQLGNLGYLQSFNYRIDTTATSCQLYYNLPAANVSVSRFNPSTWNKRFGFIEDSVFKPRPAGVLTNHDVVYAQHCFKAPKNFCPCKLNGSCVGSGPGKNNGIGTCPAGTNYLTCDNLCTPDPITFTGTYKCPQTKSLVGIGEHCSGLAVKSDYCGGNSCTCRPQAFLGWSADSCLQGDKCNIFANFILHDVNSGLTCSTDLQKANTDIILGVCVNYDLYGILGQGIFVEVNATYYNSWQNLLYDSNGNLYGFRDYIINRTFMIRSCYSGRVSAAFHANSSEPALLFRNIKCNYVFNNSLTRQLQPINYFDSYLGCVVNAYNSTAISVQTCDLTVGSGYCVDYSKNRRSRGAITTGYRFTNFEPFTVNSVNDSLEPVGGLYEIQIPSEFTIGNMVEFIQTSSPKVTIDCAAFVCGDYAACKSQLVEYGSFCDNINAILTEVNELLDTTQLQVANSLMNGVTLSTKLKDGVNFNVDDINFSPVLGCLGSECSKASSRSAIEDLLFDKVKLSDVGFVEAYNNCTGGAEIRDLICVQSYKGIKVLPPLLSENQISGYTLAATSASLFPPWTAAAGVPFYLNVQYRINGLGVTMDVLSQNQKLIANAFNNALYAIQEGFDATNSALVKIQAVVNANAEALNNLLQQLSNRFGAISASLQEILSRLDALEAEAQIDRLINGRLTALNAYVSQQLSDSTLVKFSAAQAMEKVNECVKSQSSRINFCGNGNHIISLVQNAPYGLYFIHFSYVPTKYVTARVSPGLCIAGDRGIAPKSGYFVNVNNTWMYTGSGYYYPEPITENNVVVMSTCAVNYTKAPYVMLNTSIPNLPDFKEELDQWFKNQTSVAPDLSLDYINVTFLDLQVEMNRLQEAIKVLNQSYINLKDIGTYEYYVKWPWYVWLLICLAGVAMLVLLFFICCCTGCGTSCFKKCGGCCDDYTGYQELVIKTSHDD

B1: C114 (antibody, listed as Homo sapiens, V domains shown)
VH: QVQLVESGGGLIQPGGSLKLSCVVSGFTVSKNYISWVRQAPGKGLEWVSVIFAGGSTFYADSVKGRFAISRDNSNNTLFLQMNSLRVEDTAIYYCARGDGELFFDQWGQGTLVTVSS
VL: QSVLTQPPSVSGAPGQRVTISCTGTSSNIGAGYDVHWYQQLPGRAPKVLISGNNIRPSEVPDRFSGSRSGTSASLAITSLQPEDEAQYYCQSYDSSLYAVFGGGTKLTVL
- Not Neutralising Vs (SARS-CoV1 [1]): SARS-CoV1,
- Binds to (SARS-CoV2 S; RBD): SARS-CoV2

B2: C126 (antibody, listed as Homo sapiens, V domains shown)
VH: QVQLQESGPGLVKPSETLSLSCAVSGGSIGSYFWSWIRQPPGKGLEWIGYLHYSGSTNYNPSLKSRVTISVDTSKNQFSLKLSSVTAADTAVYYCARLQWLRGAFDIWGQGTMVTVSS
VL: NFMLTQPHSVSESPGKTVTISCTGSSGSIASNYVQWYQQRPGSAPTTVINEDNQRPSGVPDRFSGSIDSSSNSASLTISGLKTEDEADYYCQSYDSSNLVFGGGTKLTVL
- Not Neutralising Vs (SARS-CoV1 [1]): SARS-CoV1,
- Binds to (SARS-CoV2 S; RBD): SARS-CoV2

B3: 9A1 (antibody, listed as Homo sapiens, V domains shown)
VH: EVQLLESGGGVVQPGRSLRLSCVVSGFTFNNYGMHWVRQAPGKGLEWVAVISYEGSVKYYGDHVDGRFTISRDPFKNTLYLHMNNLRPDDTAVYYCAKVSAIFWLGQGLSPIDVWGQGTTVTVSS
VL: DIVMTQSPATLSASPGERVTLSCRASQNIRNNLAWYQQKPGQAPRLLIHGASTRAAGAPARFSGSGSDTQFTLTVSSLQSEDFAVYYCHQYSKWPVTFGGGTKVDIK
- Not Neutralising Vs [2]: SARS-CoV2
- Binds to [3]: SARS-CoV2

B4: mAb-94 (antibody, listed as Homo sapiens, V domains shown)
VH: QVQLVQSGAEVKKPGSSVKVSCKASGGMFTDYAISWVRQAPGQRLEWMGGIMPGLGSPAYAQIFRDRATISADVSTSTAYLELTSLKPEDTAVYYCARDPSILNTGNHHWYDLDIWGQGTTVTVSS
VL: DIQLTQSPLSLPVGLGQSASISCRSSQRVVHTDGNTYLNWYHQRPGQSPRRLIYKVSNRDSGVPDRFSGSGSGTDFTLRISRVEAEDVGVYYCMQSTDWPRTFGQGTKLEIK
- Doesn't Bind to (OC43 S): OC43,
- Doesn't Bind to (NL63 S): NL63,
- Doesn't Bind to (SARS-CoV1 S): CoV1
- Binds to (SARS-CoV2 S): SARS-CoV2

B5: C118 (antibody, listed as Homo sapiens, V domains shown)
VH: QVQLVESGGGVVQPGRSLRLSCAASGFTFSNYAMHWVRQAPGKGLEWVAVISYDGSNKYYADSVKGRFTISRDNSKNTLYLQMNSLRAEDTAIYYCASGYTGYDYFVRGDYYGLDVWGQGTTVTVSS
VL: QPVLTQSPSASASLGASVKLTCTLSSGHSSYAIAWHQQQPEKGPRYLMKLNTDGSHSKGDGIPDRFSGSSSGAERYLTISSLQSEDEADYYCQTWGTGILVFGGGTKLTVL
- Binds to (SARS-CoV1 [4]): SARS-CoV1,
- Binds to (SARS-CoV2 S; RBD): SARS-CoV2

B6: mAb-88 (antibody, listed as Homo sapiens, V domains shown)
VH: QVQLVESGAEVKKPGSSVKISCKISGDTFSTNAISWLRQAPGREPEWMGGIVPLVGPASYAQRPQGRLTITADEFTNTAYLELNSLRSEDTATYYCARDSDPYTATRRHNHYWYAMDVWGQGTTVTVSS
VL: DIRLTQTPLSLPVTLGQPASISCRSSQIAMHSDGNTYLSWFHQRPGQPPRRLIYKISNRDSGVPDRFSGSGSGTDFTLKISRVEAEDIGTFYCMQGTDWPRTFGQGTKVDIK
- Doesn't Bind to (OC43 S): OC43,
- Doesn't Bind to (NL63 S): NL63,
- Doesn't Bind to (SARS-CoV1 S): CoV1
- Binds to (SARS-CoV2 S): SARS-CoV2

B7: C116 (antibody, listed as Homo sapiens, V domains shown)
VH: QVQLVESGGGVVQPGRSLRLSCAASGFTYSTYAMHWVRQAPGKGLEWVAFISYDGSNKYYADSVKGRFTISRDNSKNTLYLQMNSLRAEDTAVYYCARDFYHNWFDPWGQGTLVTVSS
VL: NFMLTQPHSVSESPGKTVTISCTGSSGSIASNYVQWYQQRPGSAPTTVIYEDNQRPSGVPDRFSGSIDRSSNSASLTISGLKTEDEADYYCQSYDSGNHWVVFGGGTRLTVL
- Not Neutralising Vs (SARS-CoV1 [1]): SARS-CoV1,
- Binds to (SARS-CoV2 S; RBD): SARS-CoV2

B8: C128 (antibody, listed as Homo sapiens, V domains shown)
VH: EVQLLESGGGLVQPGGSLRLSCAASGFTFSTYAMSWVRQAPGKGLEWVSTITGSGRDTYYADSVKGRFTISRDNSKNTLFLQLNSLRAEDAAVYSCANHPLASGDDYYHYYMDVWGKGTTVTVSS
VL: EIVLTQSPGTLSLSPGERATLSCRASQSVNSRQLAWYQQKPGQAPRLLIYGASSRATGIPERFSGSGSGTDFTLTISRLESEDFAVYHCQQYGSSRALTFGGGTKVEIK
- Not Neutralising Vs (SARS-CoV1 [5]): SARS-CoV1
- Binds to (SARS-CoV2): SARS-CoV2

B9: mAb-87 (antibody, listed as Homo sapiens, V domains shown)
VH: QVQLQESGPGLVKPSETLSLTCTVSGGSMNHYYWSWIRQPPGKGLEGIGYTYYSGSTNYNPSLKSRVTISVDASKNQFSLRLSSVTAADTAVYYCARGSQIDLRGGLGATFFDYWGQGTLVTVSS
VL: QSVLTQPASVSGSPGQSITISCTGTSSDVGAYNYVSWYQQHPGKAPKLTVYDVRNRPSGVSNRFSGSKSGNTASLTISGLQAEDEAHYYCSSYTSTNTVFGGGTKLTVL
- Doesn't Bind to (OC43 S): OC43,
- Doesn't Bind to (NL63 S): NL63,
- Doesn't Bind to (SARS-CoV1 S): CoV1
- Binds to (SARS-CoV2 S): SARS-CoV2

B10: C130 (antibody, listed as Homo sapiens, V domains shown)
VH: QVQLVQSGAEVKKPGASVKVSCKASGYTFTNYYMHWVRQAPGQGLEWMGIINPSGGSTGYAQKFQGRVTMTRDTSTSTVYMELSSLRSEDTAVYYCARSRPTPDWYFDLWGRGTLVTVSS
VL: SYELTQPPSVSVAPGKTARITCGGNNIGSKSVHWYQQKPGQAPVLVIYYDSDRPSGIPERFSGSNSGNTATLTISRVEAGDEADYYCQVWDSSSDHPGVVFGGGTKLTVL
- Not Neutralising Vs (SARS-CoV1 [5]): SARS-CoV1,
- Binds to (SARS-CoV2): SARS-CoV2

B11: mBG67 (antibody, listed as Mus musculus, V domains shown)
VH: EVQLVESGGGLVQPGGSLKLSCAASGFTFSNYGMSWVRQTPDKRLELVATINRNGGSTYYLDSVKVRFTISRDNAKSTLFLQLSSLKSDDTAMYYCARIYDFDEDYFDVWGAGTTVTVSS
VL: QIVLTQSPAIMSASLGERVTMTCTASSSVSSSYLHWYQQKPGSSPKLWIYSTSNLASGVPARFSGSGSGTSYSLTISSMEAEDAATYYCLQYHRSPWTFGGGTKLEIK
- Binds to [6]: NL63

B12: C022 (antibody, listed as Homo sapiens, V domains shown)
VH: QVQLQESGPGLVKPSETLSVTCTVSGGSISSSRYYWGWIRQPPGKGLEWIGSIYYSGSTYYNPSLKSRVTISVDTSKNQFSLKLSSVTAADTAVYYCARHAAAYYDRSGYYFIEYFQHWGQGTLVTVSS
VL: DIQMTQSPSTLSASVGDSVTITCRASQSISSWLAWYQQKPGKAPKLLIYKASSLESGVPSRFSGSGSGTEFTLTISSLQPDDFATYYCQQYNNYRYTFGQGTKLEIK
- Binds to (SARS-CoV1 [4]): SARS-CoV1,
- Binds to (SARS-CoV2 S; RBD): SARS-CoV2

B13: C113 (antibody, listed as Homo sapiens, V domains shown)
VH: QVQLVESGGGVVQPGRSLRLSCAASGFTFSNFGMHWVRQAPGKGLEWVAVIWYDGSNKYYADSVKGRFTISRDNSKNTLYLQMNSLRAEDTAVYYCARGVNPDDILTGVDAFDIWGQGTMVTVSS
VL: DIQMTQSPSTLSASVGDRVTITCRASQSMSSWLAWYQQKPGNAPKLLIYKASSLESGVPSRFSGSGSGTEFTLTISSLQPDDFATYYCQQHNSSPLTFGGGTKVEIK
- Not Neutralising Vs (SARS-CoV1 [1]): SARS-CoV1,
- Binds to (SARS-CoV2 S; RBD): SARS-CoV2

B14: mBG21 (antibody, listed as Mus musculus, V domains shown)
VH: QIQLVQSGPELKKPGETVKISCKASGYTFTDYSMHWVKQAPGKGSKWMGWINTETGEPTYADDFKGRFAFSLETSASTAYLQINNLKNEDTATYFCALRRWGQGTLVTVSS
VL: IVMTQTPKFLLVSAGDRVTITCKASQSVSNDVAWFQQKPGQSPKKLLIYFASNRYTGVPDRFTGSGYGTDFTFTITTVQAEDLAVYFCQQDYSSPWTFGGGTKLEIK
- Binds to [6]: NL63

B15: mBG57 (antibody, listed as Mus musculus, V domains shown)
VH: QIQLVQSGPELKKPGETVKISCKASGYTFTDYSMHWVKQAPGKGSKWMGWINTETGEPTYADDFKGRFAFSLETSASTAYLQINNLKNEDTATYFCALRRWGQGTLVTVSA
VL: DIVMTQAAPSEPVTPGESVSISCGSSKSLLHSNDNTYLYWFLQRPGQSPQLLIYRMSNLASGVPDRFTGSGSGTAFTLRISRVEAEDVGVYYCMQHLENPLGVRWRHQAGNQT
- Binds to [6]: NL63

B16: mBG22 (antibody, listed as Mus musculus, V domains shown)
VH: QIQLVQSGPELKKPGETVKISCKASGYTFTDYSMHWVKQAPGKGSKWMGWINTETGEPTYADDFKGRFAFSLETSASTAYLQINNLKNEDTATYFCALRRWGQGTLVTVSA
VL: IVMTQTPKFLLVSAGDRVTITCKASQSVSNDVAWFQQKPGQSPKLLIYFASNRYTGVPDRFTGSGYGTDFTFTITTVQAEDLAVYFCQQDYSSPWTFGGGTKLEIK
- Binds to [6]: NL63
